# Patent US20240366624A1, “METHODS AND COMPOSITIONS FOR TREATING THROMBOTIC DISEASE” (Washington University, priority 2023, published 2024)
# T1: ERO1α (Homo sapiens, UniProt Q96HE7)
# T1 sequence (Q96HE7 24-468): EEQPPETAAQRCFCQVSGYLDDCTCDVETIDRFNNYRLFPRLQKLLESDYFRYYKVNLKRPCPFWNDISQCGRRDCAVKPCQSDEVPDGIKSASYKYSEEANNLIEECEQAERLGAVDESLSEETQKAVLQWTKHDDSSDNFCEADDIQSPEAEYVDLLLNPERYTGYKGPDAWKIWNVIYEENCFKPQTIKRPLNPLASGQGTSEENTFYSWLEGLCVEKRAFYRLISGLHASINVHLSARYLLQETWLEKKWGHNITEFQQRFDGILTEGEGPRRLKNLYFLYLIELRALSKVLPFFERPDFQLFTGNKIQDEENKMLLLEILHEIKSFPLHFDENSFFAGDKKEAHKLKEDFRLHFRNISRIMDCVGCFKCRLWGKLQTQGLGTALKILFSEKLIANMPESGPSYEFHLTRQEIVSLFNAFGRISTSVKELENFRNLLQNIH
# B1: mutant STIM1: STIM1 with Cys49 and Cys56 mutated to Ser (protein)
# chain: LSHSHSEKATGTSSGANSEESTAAEFSRIDKPLSHSEDEKLSFEAVRNIHKLMDDDANGDVDVEESDEFLREDLNYHDPTVKHSTFHGEDKLISVEDLWKAWKSSEVYNWTVDEVVQWLITYVELPQYEETFRKLQLSGHAMPRLAVTNTTMTGTVLKMTDRSHRQKLQLKALDTVLFGPPLLTRHNHLKD
# Target: T1, ERO1α
# Assay: Bio-layer interferometry, STIM1 on biotinylated ERO1α biosensor
# Assay type: binding
# Description: FIG. 11(A-Q) is an exemplary embodiment of ERO1α (endoplasmic reticulum oxidoreductase 1α) regulating the function of Ca^2+ signaling molecules, STIM1 (stromal interaction molecule 1) and SERCA2 (sarco/endoplasmic reticulum Ca^2+ ATPase 2), and enhancing cytosolic Ca^2+ levels during platelet activation in accordance with the present disclosure. FIG. 11A: Mass spectrometric analysis was performed to identify proteins interacting with ERO1α in resting and thrombin-activated human platelets. […] FIG. 11B and FIG. 11C: Immunoprecipitation of ERO1α with lysates of resting and thrombin (Thr)-activated human platelets, followed by immunoblotting and densitometry. FIG. 11(D-F): Ca^2+ release and influx of wild type (WT) and Ero1α-null platelets were assessed in response to 0.1 U/mL thrombin, 2 μM A23187, or 20 μM thapsigargin (TG), followed by the addition of 1 mM CaCl2. The Ca^2+ signal was quantified by the area under the curve (AUC). […] After incubation with a different concentration of wtSTIM1 and mutant STIM1 (mSTIM1), the specific interaction between ERO1α and STIM1 was measured by subtracting the nonspecific binding. The dissociation constant, KD, was calculated from the Kon and Koff values. […] Please note that the unmodified peptide was not detected. […] P values determined by unpaired Student t test. […]
molecule,measurement,value
B1,"KD, ERO1α binding to STIM1",minimal and not concentration dependent
